Results reported in publication PMC8533110.

Experiments:
Test in all cases: EMSA
Settings in all cases: EMSA: 10 mM Tris-HCl pH 8.0, 60 mM NaCl, 10 mM KCl, 5 mM MgCl2, 1 mM DTT, 0.05% NP40, 10% glycerol, footprint: 5 mM Tris-HCl pH 8.0, 60 mM NaCl, 5 mM KCl
[1] = target: T1, HrcA (Campylobacter jejuni NCTC 11168) (UniProt Q9PPG2)
T1 sequence: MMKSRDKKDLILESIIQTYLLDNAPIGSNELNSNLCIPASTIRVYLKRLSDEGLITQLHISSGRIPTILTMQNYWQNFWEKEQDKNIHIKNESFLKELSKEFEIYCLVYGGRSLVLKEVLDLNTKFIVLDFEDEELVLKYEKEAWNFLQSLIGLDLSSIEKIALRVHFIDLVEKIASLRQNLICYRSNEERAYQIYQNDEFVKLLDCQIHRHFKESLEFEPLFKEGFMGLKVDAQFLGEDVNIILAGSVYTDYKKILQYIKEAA

[2] = target: T2, HrcA;HspR (Campylobacter jejuni NCTC 11168;Campylobacter jejuni NCTC 11168) (UniProt Q9PPG2+Q0P926)
T2 sequence 1: T1 sequence
T2 sequence 2: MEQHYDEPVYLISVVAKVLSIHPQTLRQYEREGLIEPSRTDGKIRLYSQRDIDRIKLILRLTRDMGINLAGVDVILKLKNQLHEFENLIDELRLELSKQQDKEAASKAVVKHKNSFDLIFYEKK

[3] = target: T3, HspR (Campylobacter jejuni NCTC 11168) (UniProt Q0P926)
T3 sequence: T2 sequence 2

Question: “GGATCCGCACAACAACAAAAGCTACAATGCCATAAAAAATCTTTTTCATTTTTATCCTTTAGTTTATTTTATAAAATAACTTTAGTCTATAAAACTAAACTTTTATAAATATTTTAATTTAAAGTATTGACAAAATTCATTTTTTATAGTATGATATTATCACTCTAAATTAAAGAGTGCTAAAATCAATATTTTTAAGGATGGACAAAAATGAATTTTCAACCTTTAGGAAAGCGTGTTCTAGTTAAACGCGCTCGAG (double strand) [Pgro promoter probe (EMSA)]” was tested. Which binding [1] did it give?
Answer: Its binding is “binds”.

Question: And the binding [2]?
Answer: Its binding is “binds”.

Question: And the binding [3]?
Answer: The binding was “binds”.

Question: Which binding [3] does the source give for “GGATCCCTTGCAGCAAATAAAGCACTTGCTAAACTTAATGATAAAAAAATCTTTTTCATTTCATTTCCTTTTGTTCTTAAAGATAAATTATCTCGTAAAATATTTTACTGTCTTCATAGTATAAAACCGAAAATTTACAAAATTGTAAATAAAACCTTGAGTGATAAAAATTTATAAAACTTGATTGACTTAGGCTAAAGTTTATGTTATAATTTAATCCTCTATATAATCAAGTAAAAATTTTTAAGGAAATATAACATGAATAGTTTATACGAAACTCTTGGAGTTAGCCTCGAG (double strand) [Pcbp promoter probe (EMSA)]” here?
Answer: The binding was “binds”.
